Data taken from US20120114590A1 (priority 2005, published 2012).

Columns and labels:
Adenovirus = assay type: cell-based
Parainfluenza virus = assay type: cell-based
Coxsackie B4 virus = assay type: cell-based; conditions: KB
[1] = test system: Influenza (type A [H3N2]); assay type: cell-based; conditions: Vero
West Nile virus = assay type: cell-based; conditions: Vero
Polio virus [2] = assay type: cell-based; conditions: Vero
Rhino 2 = assay type: cell-based, rhino virus; conditions: Rhino 2, KB cells, Neutral Red Assay
[3] = test system: Influenza (type A [H3N2]); assay type: cell-based; conditions: Vero cells, Neutral Red Assay
Pichinde virus = assay type: cell-based
Polio virus [4] = assay type: cell-based; conditions: Vero cells, Neutral Red Assay
AML-12 cells = assay: ISG induction in the mouse liver cell line AML-12 (real-time PCR); assay type: cell-based; conditions: AML-12, 20 ng/ml, 48 hour time point; mRNA relative to HPRT gene expression
Protocol: AML-12 cells were plated in 6-well plates in complete DMEM media at a concentration of 2×10^6 cells/well. […] As a control, cells were either stimulated with mouse IFNα (positive control) or unstimulated (negative). […] RNA was isolated from cell pellets using RNAEasy-kit® (Qiagen, Valencia, Calif.). RNA was treated with DNase (Millipore, Billerica, Mass.) to clean RNA of any contaminating DNA. cDNA was generated using Perkin-Elmer RT mix. ISG gene induction was evaluated by real-time PCR using primers and probes specific for mouse OAS, Pkr and Mx1. To obtain quantitative data, HPRT real-time PCR was duplexed with ISG PCR. A standard curve was obtained using known amounts of RNA from IFN-stimulated mouse PBLs. All data are shown as expression relative to internal HPRT expression.

[5] = test system: liver, spleen and blood of mice; assay: ISG gene expression (OAS, Pkr, Mx1) in liver, spleen and blood of injected C57BL/6 mice (real-time PCR); assay type: in vivo, mouse; conditions: for OAS-1 hr / OAS-6 hr / OAS-24 hr / OAS-48 hr: single injection of 250 μg i.v., average of 5 animals; for OAS (24 hr): fold expression relative to HPRT
Protocol: Mice were sacrificed at various time points (1 hr-48 hr). Spleens and livers were isolated from mice, and RNA was isolated. RNA was also isolated from the blood cells. The cells were pelleted and RNA isolated from pellets using RNAEasy®-kit (Qiagen). RNA was treated with DNase (Amicon) to rid RNA of any contaminating DNA. cDNA was generated using Perkin-Elmer RT mix (Perkin-Elmer). ISG gene induction was measured by real-time PCR using primers and probes specific for mouse OAS, Pkr and Mx1. To obtain quantitative data, HPRT real-time PCR was duplexed with ISG PCR. A standard curve was calculated using known amounts of IFN-stimulated mouse PBLs. All data are shown as expression relative to internal HPRT expression.

OAS = OAS activity in serum and plasma of mice (OAS radioimmunoassay); assay type: in vivo, mouse; conditions: C57BL/6 mice
Protocol: Serum and plasma were isolated from mice at varying time points, and OAS activity was measured using the OAS radioimmunoassay (RIA) kit from Eiken Chemicals (Tokyo, Japan).

HHV-8 = HHV-8 replication in BCBL-1 cells (TaqMan PCR extracellular HHV-8 DNA; dye uptake TC50); assay type: cell-based, human herpesvirus-8
Protocol: The therapeutic index (TI) is calculated as TC50/IC50.

adenoviral vector AdGFP = assay: Adenoviral vector (AdGFP) liver pathology model in C57Bl/6 mice; conditions: AdGFP-infected C57Bl/6 mice, 50 μg i.p., 7 doses

B1: IL-29: human IL-29 cytokine polypeptide (zcyto21), e.g. SEQ ID NO:20 (protein, listed as Homo sapiens)
chain: MAAAWTVVLVTLVLGLAVAGPVPTSKPTTTGKGCHIGRFKSLSPQELASFKKARDALEESLKLKNWSCSSPVFPGNWDLRLLQVRERPVALEAELALTLKVLEAAAGPALEDVLDQPLHTLHHILSQLQACIQPQPTAGPRPRGRLHHWLHRLQEAPKKESAGCLEASVTFNLFRLLTRDLKYVADGNLCLRTSTHPEST
modifications: SIGNAL (1)...(19)
EC50 Visual (Adenovirus; A549): >10 µg/mL
IC50 Visual (Adenovirus; A549, numerator of SI): >10 µg/mL
EC50 Visual (Parainfluenza virus; MA-104): >10 µg/mL
IC50 Visual (Parainfluenza virus; MA-104, numerator of SI): >10 µg/mL
EC50 Visual (Coxsackie B4 virus): >10 µg/mL
IC50 Visual (Coxsackie B4 virus; numerator of SI): >10 µg/mL
EC50 Visual [1]: >10 µg/mL
IC50 Visual ([1]; numerator of SI): >10 µg/mL
EC50 Visual (West Nile virus): 0.032 ng/mL
IC50 Visual (West Nile virus; numerator of SI): >10 µg/mL
EC50 Visual (Polio virus [2]): >10 µg/mL
IC50 Visual (Polio virus [2]; numerator of SI): >10 µg/mL
EC50 NR (Rhino 2): >10 µg/mL
IC50 NR (Rhino 2): >10 µg/mL
EC50 NR [3]: 2 µg/mL
IC50 NR [3]: >10 µg/mL
EC50 NR (Pichinde virus): >10 µg/mL
IC50 NR (Pichinde virus): >10 µg/mL
EC50 NR (Polio virus [4]): >10 µg/mL
IC50 NR (Polio virus [4]): >10 µg/mL
Mx1 (AML-12 cells): 0.07
OAS (AML-12 cells): 0.04
PkR (AML-12 cells): 0.02
sustained expression of ISGs above control mice ([5]; C57BL/6 mice): up to 48 hours
time of peak expression of ISGs after injection ([5]; C57BL/6 mice): 1 to 6 h
ISG gene expression (OAS, Pkr, Mx1) in the livers, spleen and blood of mice ([5]; C57BL/6 mice, i.p or i.v, 10 μg-250 μg): induced ISG gene expression
OAS-1 hr ([5]; blood, C57BL/6 mice): 12 fold expression relative to HPRT gene expression
OAS-6 hr ([5]; blood, C57BL/6 mice): 18 fold expression relative to HPRT gene expression
OAS-24 hr ([5]; blood, C57BL/6 mice): 11 fold expression relative to HPRT gene expression
OAS-48 hr ([5]; blood, C57BL/6 mice): 10 fold expression relative to HPRT gene expression
OAS-1 hr ([5]; liver, C57BL/6 mice): 2.5 fold expression relative to HPRT gene expression
OAS-6 hr ([5]; liver, C57BL/6 mice): 4 fold expression relative to HPRT gene expression
OAS-24 hr ([5]; liver, C57BL/6 mice): 2.5 fold expression relative to HPRT gene expression
OAS-48 hr ([5]; liver, C57BL/6 mice): 2.8 fold expression relative to HPRT gene expression
OAS (24 hr) ([5]; mice injected with 10 μg): 3.7
OAS (24 hr) ([5]; mice injected with 50 μg): 4.2
OAS (24 hr) ([5]; mice injected with 250 μg): 6
OAS-1 hr ([5]; spleen, C57BL/6 mice): 4 fold expression relative to HPRT gene expression
OAS-6 hr ([5]; spleen, C57BL/6 mice): 6 fold expression relative to HPRT gene expression
OAS-24 hr ([5]; spleen, C57BL/6 mice): 3.2 fold expression relative to HPRT gene expression
OAS-48 hr ([5]; spleen, C57BL/6 mice): 3.2 fold expression relative to HPRT gene expression
OAS activity in the serum and plasma of mice (OAS; i.v, 10 μg-250 μg): induced OAS activity
OAS-1 hr (OAS activity) (OAS; plasma, 1 hr, 250 μg i.v.): 80 pmol/dL of plasma
OAS-6 hr (OAS activity) (OAS; plasma, 6 hr, 250 μg i.v.): 80 pmol/dL of plasma
OAS-24 hr (OAS activity) (OAS; plasma, 24 hr, 250 μg i.v.): 180 pmol/dL of plasma
OAS-48 hr (OAS activity) (OAS; plasma, 48 hr, 250 μg i.v.): 200 pmol/dL of plasma
TI (TC50/IC50) (HHV-8): > 1.85
IC50 (extracellular HHV-8 DNA) (HHV-8; six days): 6.5 µg/mL
liver histology: cellular changes versus PBS treatment group (adenoviral vector AdGFP): less proliferation of sinusoidal cells, fewer mitotic figures and fewer changes in the hepatocytes
liver histology: liver and inflammation scores versus PBS-treated group (adenoviral vector AdGFP): lower liver and inflammation scores
average serum AST (adenoviral vector AdGFP; n=8): 162 U/L
serum ALT (adenoviral vector AdGFP; n=8): 184 U/L
